Assay results published in publication PMC3740589.

Biological target: Bcl-2 (UniProt P10415)
Assay: Flag-Beclin1 IP, Bcl-2 immunoblot
Details: reference: Flag-Beclin1 wild type; sites T119

With “Beclin1 (from UniProt Q14457) Flag-Beclin1 T119A” the “binding against the reference” value was “stronger”.
